One data set has as its target T1, CtTrl1-LIG K148N (Chaetomium thermophilum (syn. …, UniProt G0S6G2 1-414, K148N)).
T1 sequence: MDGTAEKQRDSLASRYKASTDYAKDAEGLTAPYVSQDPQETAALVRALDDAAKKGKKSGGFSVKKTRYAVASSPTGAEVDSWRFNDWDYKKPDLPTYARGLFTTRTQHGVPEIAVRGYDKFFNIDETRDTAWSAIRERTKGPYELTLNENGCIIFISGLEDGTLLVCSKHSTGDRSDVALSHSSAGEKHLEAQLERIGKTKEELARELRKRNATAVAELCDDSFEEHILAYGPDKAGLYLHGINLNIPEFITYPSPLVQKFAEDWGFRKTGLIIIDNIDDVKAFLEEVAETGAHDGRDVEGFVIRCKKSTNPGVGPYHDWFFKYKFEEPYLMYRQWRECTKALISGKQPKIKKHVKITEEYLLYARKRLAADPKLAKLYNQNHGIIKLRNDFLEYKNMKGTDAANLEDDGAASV
In words: EMSA. In general terms: A gel shift assay detects complexes by their altered migration in electrophoresis.

Data set [1] deals with T2, CtTrl1-LIG WT (tRNA ligase LIG domain) (Chaetomium thermophilum (syn. …, UniProt G0S6G2 1-414)).
T2 sequence: T1 sequence with N148K
Description: EMSA.

For data set [2], the target named is T2, CtTrl1-LIG WT (tRNA ligase LIG domain). In words: X-ray crystallography.

Numbering of substitutions follows the chain as printed.

B1: ASL-4U (structured_RNA)
RNA: AUCUGGAUUUUGCCAGACUGAAG
modifications: 5'-phosphate; terminal phosphate at 3' end (ordered as [Phos]; 2'-P form in the EMSA not stated)
As to B1, the binding result (in the data set with CtTrl1-LIG K148N; in data set [1]) was “binds” each time.

B2: sctRNAPhe-3'exon-7nt (dsRNA)
RNA 1: AUCUGGA
RNA 2: AUCUGGA
modifications: 5'-phosphate; one strand 5'-adenylylated (AppRNA) in the crystal
As for B2, the binding result in data set [2] is reported as “binds”.

The values are drawn from publication doi:10.1101/2024.06.06.597711.
